Experiments:
Assay in all cases: cell-based or functional assay
EGFR(h) = EGFR(h) (human, UniProt P00533 696-1210, limits assumed)
NEK11(h) = biological target: T1, NEK11(h) (human, UniProt Q8NG66 1-645, limits assumed)
T1 sequence (looked up): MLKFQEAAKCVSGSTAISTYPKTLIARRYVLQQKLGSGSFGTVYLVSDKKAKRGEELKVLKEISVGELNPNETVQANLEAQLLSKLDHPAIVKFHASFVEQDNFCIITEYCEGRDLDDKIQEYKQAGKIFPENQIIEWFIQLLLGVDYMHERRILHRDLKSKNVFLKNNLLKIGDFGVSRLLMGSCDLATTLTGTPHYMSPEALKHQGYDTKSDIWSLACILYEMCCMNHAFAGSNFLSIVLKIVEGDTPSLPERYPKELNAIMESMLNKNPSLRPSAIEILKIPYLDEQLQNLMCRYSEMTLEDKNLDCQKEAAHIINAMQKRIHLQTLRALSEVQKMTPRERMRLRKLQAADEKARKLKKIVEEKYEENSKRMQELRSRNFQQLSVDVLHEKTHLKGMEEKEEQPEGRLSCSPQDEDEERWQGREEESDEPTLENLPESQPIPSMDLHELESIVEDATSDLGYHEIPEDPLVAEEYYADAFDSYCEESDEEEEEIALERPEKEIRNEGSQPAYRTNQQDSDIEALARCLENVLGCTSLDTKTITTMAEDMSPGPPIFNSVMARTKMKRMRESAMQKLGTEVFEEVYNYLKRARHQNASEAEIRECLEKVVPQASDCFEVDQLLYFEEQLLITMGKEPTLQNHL

Itk(h) = biological target: T2, Itk(h) (human, UniProt Q08881 1-620, limits assumed)
T2 sequence (looked up): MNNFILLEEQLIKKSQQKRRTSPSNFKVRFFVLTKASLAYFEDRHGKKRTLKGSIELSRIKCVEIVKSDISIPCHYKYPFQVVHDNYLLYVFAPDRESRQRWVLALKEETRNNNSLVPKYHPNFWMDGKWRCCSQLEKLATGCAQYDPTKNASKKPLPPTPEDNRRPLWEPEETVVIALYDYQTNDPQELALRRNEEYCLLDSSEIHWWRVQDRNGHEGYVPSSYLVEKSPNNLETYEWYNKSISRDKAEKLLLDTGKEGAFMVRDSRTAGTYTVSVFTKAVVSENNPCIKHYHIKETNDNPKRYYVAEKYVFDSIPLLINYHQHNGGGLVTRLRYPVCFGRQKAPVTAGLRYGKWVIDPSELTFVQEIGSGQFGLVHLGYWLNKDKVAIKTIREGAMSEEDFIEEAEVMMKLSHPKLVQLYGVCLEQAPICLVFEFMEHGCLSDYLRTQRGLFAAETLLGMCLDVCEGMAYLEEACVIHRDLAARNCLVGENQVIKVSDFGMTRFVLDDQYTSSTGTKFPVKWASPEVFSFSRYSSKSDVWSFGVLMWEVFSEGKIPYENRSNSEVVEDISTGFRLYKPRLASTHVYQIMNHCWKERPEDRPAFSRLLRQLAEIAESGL

ErbB4(h) = ErbB4(h) (human, UniProt Q15303 676-1308, limits assumed)
BTK(h) = BTK(h) (human, UniProt Q06187 1-659)
BTK(h), sequence (Q06187 whole entry): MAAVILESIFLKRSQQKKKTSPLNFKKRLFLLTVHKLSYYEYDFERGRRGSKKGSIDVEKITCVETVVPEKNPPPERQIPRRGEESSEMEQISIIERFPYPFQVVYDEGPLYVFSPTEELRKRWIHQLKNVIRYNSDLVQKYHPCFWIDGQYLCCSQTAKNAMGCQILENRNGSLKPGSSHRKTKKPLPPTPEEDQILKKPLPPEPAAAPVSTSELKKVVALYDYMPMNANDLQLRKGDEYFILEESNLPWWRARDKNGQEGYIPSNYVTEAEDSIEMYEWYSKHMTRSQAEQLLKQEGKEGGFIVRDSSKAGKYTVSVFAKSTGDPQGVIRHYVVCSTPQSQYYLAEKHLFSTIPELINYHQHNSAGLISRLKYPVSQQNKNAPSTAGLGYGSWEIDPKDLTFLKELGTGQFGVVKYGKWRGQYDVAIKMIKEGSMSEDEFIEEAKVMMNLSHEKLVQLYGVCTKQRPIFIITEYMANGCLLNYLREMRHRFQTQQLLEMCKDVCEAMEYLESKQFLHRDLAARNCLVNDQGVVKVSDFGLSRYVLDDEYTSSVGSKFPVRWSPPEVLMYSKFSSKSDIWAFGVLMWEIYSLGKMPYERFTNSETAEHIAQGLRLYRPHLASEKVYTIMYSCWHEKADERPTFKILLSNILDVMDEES

Fer(h) = Fer(h) (human, UniProt P16591 541-822, limits assumed)
PKCτ(h) = PKCτ(h) (human)
PKCγ(h) = PKCγ(h) (human, UniProt P05129 1-697)
mTOR(h) = mTOR(h) (human, UniProt P42345 1362-2549)
mTOR(h), sequence (P42345 1362-2549 limits assumed): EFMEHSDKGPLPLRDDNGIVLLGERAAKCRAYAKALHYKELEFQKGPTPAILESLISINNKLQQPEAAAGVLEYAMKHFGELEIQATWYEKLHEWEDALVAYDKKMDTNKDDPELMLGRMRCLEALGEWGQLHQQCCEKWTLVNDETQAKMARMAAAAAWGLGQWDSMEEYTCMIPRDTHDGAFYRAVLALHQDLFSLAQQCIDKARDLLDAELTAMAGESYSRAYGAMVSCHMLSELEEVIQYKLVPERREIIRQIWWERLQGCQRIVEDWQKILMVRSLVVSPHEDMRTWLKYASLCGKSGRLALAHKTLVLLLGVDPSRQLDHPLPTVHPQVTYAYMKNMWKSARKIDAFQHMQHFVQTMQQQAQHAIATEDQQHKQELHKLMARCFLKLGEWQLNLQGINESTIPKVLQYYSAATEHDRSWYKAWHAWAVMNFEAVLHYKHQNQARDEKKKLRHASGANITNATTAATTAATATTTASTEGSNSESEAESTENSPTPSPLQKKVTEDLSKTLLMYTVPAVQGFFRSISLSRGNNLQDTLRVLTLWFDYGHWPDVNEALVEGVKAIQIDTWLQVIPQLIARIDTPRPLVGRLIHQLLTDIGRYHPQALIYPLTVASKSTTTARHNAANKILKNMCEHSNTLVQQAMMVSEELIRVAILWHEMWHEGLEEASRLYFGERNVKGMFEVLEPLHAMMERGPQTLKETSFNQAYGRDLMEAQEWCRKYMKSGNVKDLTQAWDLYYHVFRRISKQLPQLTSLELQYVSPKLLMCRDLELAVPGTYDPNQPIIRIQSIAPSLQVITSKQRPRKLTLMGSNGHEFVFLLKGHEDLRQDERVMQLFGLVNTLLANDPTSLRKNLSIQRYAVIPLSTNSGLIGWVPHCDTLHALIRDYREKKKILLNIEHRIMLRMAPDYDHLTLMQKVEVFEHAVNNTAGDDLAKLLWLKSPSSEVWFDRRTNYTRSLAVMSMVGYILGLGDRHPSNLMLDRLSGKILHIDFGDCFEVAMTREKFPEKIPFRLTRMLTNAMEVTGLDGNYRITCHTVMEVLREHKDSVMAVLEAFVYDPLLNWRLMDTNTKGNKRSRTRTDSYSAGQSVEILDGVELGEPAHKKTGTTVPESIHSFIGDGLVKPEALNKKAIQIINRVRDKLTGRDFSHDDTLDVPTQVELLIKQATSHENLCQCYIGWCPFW

SGK(h) = biological target: T3, SGK(h) (human, UniProt O00141 60-431)
T3 sequence (looked up): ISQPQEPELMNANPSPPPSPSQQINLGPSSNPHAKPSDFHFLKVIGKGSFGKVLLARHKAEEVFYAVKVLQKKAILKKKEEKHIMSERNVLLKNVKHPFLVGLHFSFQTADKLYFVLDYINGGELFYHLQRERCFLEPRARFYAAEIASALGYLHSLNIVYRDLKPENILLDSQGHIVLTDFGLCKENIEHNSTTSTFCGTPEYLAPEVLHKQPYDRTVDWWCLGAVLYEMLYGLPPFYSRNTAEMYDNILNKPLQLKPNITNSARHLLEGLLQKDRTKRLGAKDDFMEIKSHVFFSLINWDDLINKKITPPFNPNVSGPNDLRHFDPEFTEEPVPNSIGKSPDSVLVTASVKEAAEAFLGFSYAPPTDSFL

c-RAF(h) = c-RAF(h) (human, UniProt P04049 306-648, limits assumed)
LIMK1(h) = LIMK1(h) (human, UniProt P53667 285-638, limits assumed)
LIMK1(h), sequence (P53667 285-638 limits assumed): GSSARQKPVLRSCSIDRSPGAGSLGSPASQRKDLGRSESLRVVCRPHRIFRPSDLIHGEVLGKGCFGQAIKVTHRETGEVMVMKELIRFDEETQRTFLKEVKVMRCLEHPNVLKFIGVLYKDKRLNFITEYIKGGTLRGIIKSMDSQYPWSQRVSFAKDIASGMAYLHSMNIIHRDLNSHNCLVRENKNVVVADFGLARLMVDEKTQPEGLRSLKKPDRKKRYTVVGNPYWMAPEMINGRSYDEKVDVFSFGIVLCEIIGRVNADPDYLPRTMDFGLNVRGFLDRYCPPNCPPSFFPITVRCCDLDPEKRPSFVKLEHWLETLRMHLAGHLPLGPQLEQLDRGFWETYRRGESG

DAPK2(h) = DAPK2(h) (human, UniProt Q9UIK4 1-370, limits assumed)
DAPK2(h), sequence (Q9UIK4 whole entry): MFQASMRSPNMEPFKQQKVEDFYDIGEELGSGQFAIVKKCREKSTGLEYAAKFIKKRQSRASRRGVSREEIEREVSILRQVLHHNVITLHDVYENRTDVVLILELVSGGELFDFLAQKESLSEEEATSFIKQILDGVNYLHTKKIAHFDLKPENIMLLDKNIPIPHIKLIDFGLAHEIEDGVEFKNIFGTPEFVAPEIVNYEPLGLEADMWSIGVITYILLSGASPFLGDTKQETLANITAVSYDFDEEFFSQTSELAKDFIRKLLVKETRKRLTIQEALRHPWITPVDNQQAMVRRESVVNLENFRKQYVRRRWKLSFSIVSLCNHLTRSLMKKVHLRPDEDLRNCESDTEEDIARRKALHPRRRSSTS

CHK2(R145W)(h) = CHK2(R145W)(h) (human, UniProt O96017 5-543, limits assumed)
CHK2(R145W)(h), sequence (O96017 5-543 R145W limits assumed): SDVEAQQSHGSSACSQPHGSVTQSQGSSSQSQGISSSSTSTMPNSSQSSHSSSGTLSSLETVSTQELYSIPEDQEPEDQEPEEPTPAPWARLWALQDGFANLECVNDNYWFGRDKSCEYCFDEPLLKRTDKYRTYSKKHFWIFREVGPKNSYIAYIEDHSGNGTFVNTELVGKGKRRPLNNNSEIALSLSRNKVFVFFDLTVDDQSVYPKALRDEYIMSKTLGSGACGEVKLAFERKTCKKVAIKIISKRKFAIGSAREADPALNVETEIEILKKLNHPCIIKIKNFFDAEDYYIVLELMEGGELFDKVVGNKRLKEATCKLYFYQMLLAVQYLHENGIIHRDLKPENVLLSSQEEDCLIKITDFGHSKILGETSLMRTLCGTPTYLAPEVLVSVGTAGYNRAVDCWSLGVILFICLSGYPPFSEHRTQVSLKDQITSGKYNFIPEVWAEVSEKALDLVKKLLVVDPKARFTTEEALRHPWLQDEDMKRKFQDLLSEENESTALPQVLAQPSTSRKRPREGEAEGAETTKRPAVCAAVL

p70S6K(h) = p70S6K(h) (human, UniProt P23443 1-421, limits assumed)
Ab1(h) = Ab1(h) (human, UniProt P00519 27-1130, limits assumed)
Ab1(h), sequence (P00519 27-1130 limits assumed): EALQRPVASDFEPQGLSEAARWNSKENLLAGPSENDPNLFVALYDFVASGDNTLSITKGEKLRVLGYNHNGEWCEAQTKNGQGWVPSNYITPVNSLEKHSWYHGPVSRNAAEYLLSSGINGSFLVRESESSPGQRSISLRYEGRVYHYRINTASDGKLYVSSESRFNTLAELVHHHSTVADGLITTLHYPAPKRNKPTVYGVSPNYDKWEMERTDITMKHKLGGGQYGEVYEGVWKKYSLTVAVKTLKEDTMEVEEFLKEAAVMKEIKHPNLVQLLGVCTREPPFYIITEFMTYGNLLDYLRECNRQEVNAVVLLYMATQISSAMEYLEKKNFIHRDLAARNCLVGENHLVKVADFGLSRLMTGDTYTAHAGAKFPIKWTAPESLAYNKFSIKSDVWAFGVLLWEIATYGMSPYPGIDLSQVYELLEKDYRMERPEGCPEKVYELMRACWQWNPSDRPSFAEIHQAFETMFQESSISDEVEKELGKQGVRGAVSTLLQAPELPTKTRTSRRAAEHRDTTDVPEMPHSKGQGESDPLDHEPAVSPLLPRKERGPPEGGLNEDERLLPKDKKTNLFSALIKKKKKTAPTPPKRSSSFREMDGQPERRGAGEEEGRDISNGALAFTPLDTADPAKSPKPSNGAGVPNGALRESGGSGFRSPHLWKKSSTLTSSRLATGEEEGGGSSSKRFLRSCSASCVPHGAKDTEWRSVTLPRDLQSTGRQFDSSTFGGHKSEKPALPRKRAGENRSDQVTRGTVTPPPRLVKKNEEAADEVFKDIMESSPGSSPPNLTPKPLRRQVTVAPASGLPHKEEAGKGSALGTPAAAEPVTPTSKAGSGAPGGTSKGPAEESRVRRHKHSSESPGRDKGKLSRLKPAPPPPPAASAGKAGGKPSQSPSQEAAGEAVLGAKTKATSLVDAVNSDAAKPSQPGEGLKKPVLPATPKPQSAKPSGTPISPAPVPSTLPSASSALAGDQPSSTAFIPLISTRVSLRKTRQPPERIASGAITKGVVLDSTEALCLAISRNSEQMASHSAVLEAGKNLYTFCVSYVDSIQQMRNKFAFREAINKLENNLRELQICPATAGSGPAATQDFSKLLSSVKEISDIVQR

B1: MMI-0400 (peptide)
peptide: KAFAKLAARLYRKALARQLGVAA
EGFR(h)
  % activity: 16%
NEK11(h)
  % activity: 33%
Itk(h)
  % activity: 63%
ErbB4(h)
  % activity: 0%
BTK(h)
  % activity: 94%
Fer(h)
  % activity: 108%
PKCτ(h)
  % activity: 46%
PKCγ(h)
  % activity: 79%
mTOR(h)
  % activity: 93%
SGK(h)
  % activity: 54%
c-RAF(h)
  % activity: 102%
LIMK1(h)
  % activity: 92%
DAPK2(h)
  % activity: 16%
CHK2(R145W)(h)
  % activity: 31%
p70S6K(h)
  % activity: 33%
Ab1(h)
  % activity: 84%

B2: MMI-0300 (peptide)
peptide: FAKLAARLYRKALARQLGVAA
EGFR(h)
  % activity: 21%
NEK11(h)
  % activity: 53%
Itk(h)
  % activity: 77%
ErbB4(h)
  % activity: 40%
BTK(h)
  % activity: 102%
Fer(h)
  % activity: 130%
PKCτ(h)
  % activity: 68%
PKCγ(h)
  % activity: 89%
mTOR(h)
  % activity: 91%
SGK(h)
  % activity: 48%
c-RAF(h)
  % activity: 107%
LIMK1(h)
  % activity: 88%
DAPK2(h)
  % activity: 32%
CHK2(R145W)(h)
  % activity: 33%
p70S6K(h)
  % activity: 35%
Ab1(h)
  % activity: 69%
